T1: MERS Receptor Binding Domain (RBD) protein (Middle East Respiratory Syndrome (MERS) …, UniProt K9N5Q8 367-606)
T1 construct: also called Middle East Respiratory Syndrome (MERS) virus
T1 sequence: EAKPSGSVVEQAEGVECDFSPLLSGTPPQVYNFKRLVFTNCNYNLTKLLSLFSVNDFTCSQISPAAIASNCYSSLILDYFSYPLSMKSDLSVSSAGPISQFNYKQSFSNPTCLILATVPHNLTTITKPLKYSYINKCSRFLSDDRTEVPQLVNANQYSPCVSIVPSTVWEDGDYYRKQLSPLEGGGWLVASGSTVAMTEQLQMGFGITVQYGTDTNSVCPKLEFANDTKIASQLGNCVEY


Legend:
[1] = molecular target: T2, SARS-CoV-1 Receptor Binding Domain (RBD) protein (SARS-CoV-1, UniProt P59594 306-527); assay: SPR Carterra LSA, scFv captured via anti-V5
T2 construct: also called SARS1

[2] = molecular target: T1, MERS Receptor Binding Domain (RBD) …; assay: SPR Carterra LSA, scFv captured via anti-V5

| Binder | binding result [1] | binding result [2] |
| --- | --- | --- |
| COVID19_P22_C09 (scFv, V domains shown) VH: QVQLVQSGAEVKKPGSSVKVSCKASGYNFTDYHIQWVRQAPGQGLEWVGMIIPRHGGTAYAQRFQGRVTITADESTSTAYMELSSLRSEDTAVYYCAGGSGLTTPMDVWGQGTLVTVSS VL: not shown | no binding (tested: 300 nM) | no binding (tested: 300 nM) |
| COVID19_P10_B10 (scFv, V domains shown) VH: QVQLVQSGAEVKKPGSSVKVSCKASGYSFSDYHVHWVRQAPGQGLEWVGMIIPRHGGTAYAQKFQGRVTITADESTSTAYMELSSLRSEDTAVYYCAGGSGISTPMDVWGQGTLVTVSS VL: not shown | no binding (tested: 300 nM) | no binding (tested: 300 nM) |
| COVID19_P09_B10 (scFv, V domains shown) VH: QVQLVQSGAEVKKPGSSVKVSCKASGYSFTDYHIHWVRQAPGQGLEWMAMIVPRGGSTTYAQKFQGRVTITADESTSTAYMELSSLRSEDTAVYYCAGGSGISTPMDVWGQGTLVTVSS VL: not shown | no binding (tested: 300 nM) | no binding (tested: 300 nM) |
| COVID19_P22_F04 (scFv, V domains shown) VH: QVQLVQSGAEVKKPGSSVKVSCKASGGGFITYWIGWVRQAPGQGLEWMGIIYPGDGEARYSQKFQGRVTITADESTSTAYMELSSLRSEDTAVYYCAGGSGISTPMDVWGQGTLVTVSS VL: not shown | no binding (tested: 300 nM) | no binding (tested: 300 nM) |
| COVID19_P21_A08 (scFv, V domains shown) VH: QVQLVQSGAEVKKPGSSVKVSCKASGGTFITYWIGWVRQAPGQGLEWMGWINPNSGGTNYAQKFQGRVTITADESTSTAYMELSSLRSEDTAVYYCAGGSGISTPMDVWGQGTLVTVSS VL: not shown | no binding (tested: 300 nM) | no binding (tested: 300 nM) |
| COVID19_P21_H01 (scFv, V domains shown) VH: QVQLVQSGAEVKKPGSSVKVSCKASGYGFSTYWIGWVRQAPGQGLEWMGWINPNSGGTNYAQKFQGRVTITADESTSTAYMELSSLRSEDTAVYYCAGGSGISTPMDVWGQGTLVTVSS VL: not shown | no binding (tested: 300 nM) | no binding (tested: 300 nM) |
| COVID19_P22_E06 (scFv, V domains shown) VH: QVQLVQSGAEVKKPGSSVKVSCKASGGGFITYWIGWVRQAPGQGLEWMGIIYPGDSETRYSQKFQGRVTITADESTSTAYMELSSLRSEDTAVYYCAGGSGISSDMDVWGQGTLVTVSS VL: not shown | no binding (tested: 300 nM) | no binding (tested: 300 nM) |
| COVID19_P22_G12 (scFv, V domains shown) VH: QVQLVQSGAEVKKPGSSVKVSCKASGGGFITYWIGWVRQAPGQGLEWMGIIYPGDSETRYSQKFQGRVTITADESTSTAYMELSSLRSEDTAVYYCAGGSGISTPMDVWGQGTLVTVSS VL: not shown | no binding (tested: 300 nM) | no binding (tested: 300 nM) |
| COVID19_P10_D08 (scFv, V domains shown) VH: QVQLVQSGAEVKKPGSSVKVSCKASGGTFNSHAISWVRQAPGQGLEWMGWINPNSGATNYAQKFQGRVTITADESTSTAYMELSSLRSEDTAVYYCAGGSGISTPVGVWGQGTLVTVSS VL: not shown | no binding (tested: 300 nM) | no binding (tested: 300 nM) |
| COVID19_P22_H10 (scFv, V domains shown) VH: QVQLVQSGAEVKKPGSSVKVSCKASGGGFSTYWIGWVRQAPGQGLEWVGWINPNSGATKYAQKFQGRVTITADESTSTAYMELSSLRSEDTAVYYCAGGSGISTPMDVWGQGTLVTVSS VL: not shown | no binding (tested: 300 nM) | no binding (tested: 300 nM) |
| COVID19_P10_G03 (scFv, V domains shown) VH: QVQLVQSGAEVKKPGSSVKVSCKASGGTFSNSSINWVRQAPGQGLEWMGRINPNSGGTNYAQKFQGRVTITADESTSTAYMELSSLRSEDTAVYYCAGGSGISTPMDVWGQGTLVTVSS VL: not shown | no binding (tested: 300 nM) | no binding (tested: 300 nM) |
| COVID19_P09_D06 (scFv, V domains shown) VH: QVQLVQSGAEVKKPGSSVKVSCKASGYGFITYWIGWVRQAPGQGLEWMGIIYPGDSETRYAQKFQGRVTITADESTSTAYMELSSLRSEDTAVYYCAGGSGIYVPMDVWGQGTLVTVSS VL: not shown | no binding (tested: 300 nM) | no binding (tested: 300 nM) |
| COVID19_P21_B01 (scFv, V domains shown) VH: QVQLVQSGAEVKKPGSSVKVSCKASGYTFSTYWIGWVRQAPGQGLEWMGWIDPNSGGTNYAQKFQGRVTITADESTSTAYMELSSLRSEDTAVYYCAGGSGISTPMDVWGQGTLVTVSS VL: not shown | no binding (tested: 300 nM) | no binding (tested: 300 nM) |
| COVID19_P22_B04 (scFv, V domains shown) VH: QVQLVQSGAEVKKPGSSVKVSCKASGYGFITYWIGWVRQAPGQGLEWMGIIYPGDSETRYAQKFQGRVTITADESTSTAYMELSSLRSEDTAVYYCAGGEGISTPMDVWGQGTLVTVSS VL: not shown | no binding (tested: 300 nM) | no binding (tested: 300 nM) |
| COVID19_P10_C05 (scFv, V domains shown) VH: QVQLVQSGAEVKKPGSSVKVSCKASGGTFITYWIGWVRQAPGQGLEWMGIIYPGDGEARYSQKFQGRVTITADESTSTAYMELSSLRSEDTAVYYCAGSGGISTPMDVWGQGTLVTVSS VL: not shown | no binding (tested: 300 nM) | no binding (tested: 300 nM) |
| COVID19_P09_C05 (scFv, V domains shown) VH: QVQLVQSGAEVKKPGSSVKVSCKASGYSFSDYYIHWVRQAPGQGLEWMGWIDPNSGGTNYAQKFQGRVTITADESTSTAYMELSSLRSEDTAVYYCAGGSGISTPMDVWGQGTLVTVSS VL: not shown | no binding (tested: 300 nM) | no binding (tested: 300 nM) |
| COVID19_P09_H09 (scFv, V domains shown) VH: QVQLVQSGAEVKKPGSSVKVSCKASGGTFITYWIYWVRQAPGQGLEWMGIIYPGDGEARYSQKFYGRVTITADESTSTAYMELSSLRSEDTAVYYCAGSGGISTPMDVWGQGTLVTVSS VL: not shown | no binding (tested: 300 nM) | no binding (tested: 300 nM) |
| COVID19_P21_B09 (scFv, V domains shown) VH: QVQLVQSGAEVKKPGSSVKVSCKASGYTFTGHYMHWVRQAPGQGLEWMGIIYPGDSEARYSQKFQGRVTITADESTSTAYMELSSLRSEDTAVYYCAGGSGISTPMDVWGQGTLVTVSS VL: not shown | no binding (tested: 300 nM) | no binding (tested: 300 nM) |
| COVID19_P22_F11 (scFv, V domains shown) VH: QVQLVQSGAEVKKPGSSVKVSCKASGGGFITYWISWVRQAPGQGLEWMGIIYPGDGEARYSQKFQGRVTITADESTSTAYMELSSLRSEDTAVYYCAGGSGIIQPMDVWGQGTLVTVSS VL: not shown | no binding (tested: 300 nM) | no binding (tested: 300 nM) |
| COVID19_P09_B09 (scFv, V domains shown) VH: QVQLVQSGAEVKKPGSSVKVSCKASGYRFTDYHLHWVRQAPGQGLEWMGGIVPFSGTTNFAQKFQGRVTITADESTSTAYMELSSLRSEDTAVYYCAGGSGETTPMDVWGQGTLVTVSS VL: not shown | no binding (tested: 300 nM) | no binding (tested: 300 nM) |
| COVID19_P21_H03 (scFv, V domains shown) VH: QVQLVQSGAEVKKPGSSVKVSCKASGYTFTNYGINWVRQAPGQGLEWMGWMNPYSGNTGYAQKFQGRVTITADESTSTAYMELSSLRSEDTAVYYCAVLSGISTPMDVWGQGTLVTVSS VL: not shown | no binding (tested: 300 nM) | no binding (tested: 300 nM) |
| COVID19_P10_A09 (scFv, V domains shown) VH: QVQLVQSGAEVKKPGSSVKVSCKASGYTFTDYYIHWVRQAPGQGLEWMGWMNPNSGNTGYAQNFQGRVTITADESTSTAYMELSSLRSEDTAVYYCAGGSGISTAWDVWGQGTLVTVSS VL: DIVMTQSPDSLAVSLGERATIRCTSSLSLQDRSNNKNYLTWYQQKPGQPPKLLIYWASTRESGVPDRFSGSGSGTDFTLTISSLQAEDVAVYYCQQHYSAPLTFGGGTKVEIKR | no binding (tested: 300 nM) | no binding (tested: 300 nM) |
| COVID19_P21_B02 (scFv, V domains shown) VH: QVQLVQSGAEVKKPGSSVKVSCKASGYTFTNYGINWVRQAPGQGLEWMGWMNPNSGNTGYAQKFQGRVTITADESTSTAYMELSSLRSEDTAVYYCAAVSGISTPMDVWGQGTLVTVSS VL: not shown | no binding (tested: 300 nM) | no binding (tested: 300 nM) |
| COVID19_P09_G12 (scFv, V domains shown) VH: QVQLVQSGAEVKKPGSSVKVSCKASGYPFTNYGISWVRQAPGQGLEWMGWMNPNSGNTGYAQKFQGRVTITADESTSTAYMELSSLRSEDTAVYYCATLSGISTPMDVWGQGTLVTVSS VL: not shown | no binding (tested: 300 nM) | no binding (tested: 300 nM) |
| COVID19_P21_E04 (scFv, V domains shown) VH: QVQLVQSGAEVKKPGSSVKVSCKASGYTFTNYGINWMRQAPGQGLEWMGWMNPNSGNTGYAQKFQGRVTITADESTSTAYMELSSLRSEDTAVYYCAGGSGISTPMDVWGQGTLVTVSS VL: not shown | no binding (tested: 300 nM) | no binding (tested: 300 nM) |

Reference: patent US20240270825A1 (CENTIVAX, published 2024)
